Biological target: the molecule itself
Experiment: SEC

B1: His-PodJ(1-635) (domain or fragment, Caulobacter crescentus, UniProt Q9ZG88 1-635, looked up)
chain: MTAASPWSVKGIDPKAREVAKDLARRSGMTLGEWLNRMIIEGDGQTADPRLAGDDVPNRAYLEIVKDDAPPRIEIAEHPADEVGRVALALDRLTQRIEAAEGRNAAAITGIDHSVRDALTRLGASEREQIAVAARFEGAVDELKTEQARATERLRRIESEAAGPRSAEALRALEGALGKVAGHLYEGEARTREAIATLEAKLNQQSSGDPSALVEAVVARLGERLEAAETRTSDALRELGASFQALDQRLGAVETANPATGVQEGLDSLAATLTQKMEAARLEMAAKLRESADGRFDRMERKLGEMAAHVQAAEQRSAQAIERMGREIVGVADAFNRRVHAAESRNASAIEQVGGEVARIAASVEHKLNRADSVQAQALEKLGGEIARITEKLAERIGSAERRNALAIDDVGEQVARVTERLNQRHERSSQELVDRIRQSEERTLRMLEEAREKIDSRLSEAQRKLEAAPPSPPPAQAPAPVATAQRPVPPAASPFEDNYFSQAASFSTSEDEADAFDAPPAPARSFEVAEFPAAEPEEPAFAHDDYAIADGFEPESPRYEVEPEVSDFAPAEPSRPMSTRDIIEQARAAARAAAASEGKGGKAKSAKKEKASKASGSLFSGFGGFSTKKSKARL
binding result: binds
